# Measurements reported in patent publication US20070066682A1, “Arylalkylamine vanadium (V) salts for the treatment and/or prevention of Diabetes mellitus” (priority 2005, published 2007).
# B1: Mouse SSAO/VAP-1 (Mus musculus) (protein)
# chain: MTQKTTLVLLALAVITIFALVCVLLAGRSGDGGGLSQPLHCPSVLPSVQPRTHPSQSQPFADLSPEELTAVMSFLTKHLGPGLVDAAQARPSDNCVFSVELQLPAKAAALAHLDRGGPPPVREALAIIFFGGQPKPNVSELVVGPLPHPSYMRDVTVERHGGPLPYYRRPVLDREYQDIEEMIFHRELPQASGLLHHCCFYKHQGQNLLTMTTAPRGLQSGDRATWFGLYYNLSGAGFYPHPIGLELLIDHKALDPALWTIQKVFYQGRYYESLTQLEDQFEAGLVNVVLVPNNGTGGSWSLKSSVPPGPAPPLQFHPQGPRFSVQGSQVSSSLWAFSFGLGAFSGPRIFDIRFQGERVAYEISVQEAIALYGGNSPASMSTCYVDGSFGIGKYSTPLIRGVDCPYLATYVDWHFLLESQAPKTLRDAFCVFEQNQGLPLRRHHSDFYSHYFGGVVGTVLVVRSVSTLLNYDYIWDMVFHPNGAIEVKFHATGYISSAFFFGAGEKFGNRVGAHTLGTVHTHSAHFKVDLDVAGLKNWAWAEDMAFVPTIVPWQPEYQMQRLQVTRKLLETEEEAAFPLGGATPRYLYLASNHSNKWGHRRGYRIQILSFAGKPLPQESPIEKAFTWGRYHLAVTQRKEEEPSSSSIFNQNDPWTPTVNFTDFISNETIAGEDLVAWVTAGFLHIPHAEDIPNTVTAGNSVGFFLRPYNFFDEDPSFHSADSIYFREGQDATACEVNPLACLSQTATCAPEIPAFSHGGFAYRDN
# B2: Human SSAO/VAP-1 (Homo sapiens) (protein)
# chain: MNQKTILVLLILAVITIFALVCVLLVGRGGDGGEPSQLPHCPSVSPSAQPWTHPGQSQLFADLSREELTAVMRFLTQRLGPGLVDAAQARPSDNCVFSVELQLPPKAAALAHLDRGSPPPAREALAIVFFGRQPQPNVSELVVGPLPHPSYMRDVTVERHGGPLPYHRRPVLFQEYLDIDQMIFNRELPQASGLLHHCCFYKHRGRNLVTMTTAPRGLQSGDRATWFGLYYNISGAGFFLHHVGLELLVNHKALDPARWTIQKVFYQGRYYDSLAQLEAQFEAGLVNVVLIPDNGTGGSWSLKSPVPPGPAPPLQFYPQGPRFSVQGSRVASSLWTFSFGLGAFSGPRIFDVRFQGERLVYEISLQEALAIYGGNSPAAMTTRYVDGGFGMGKYTTPLTRGVDCPYLATYVDWHFLLESQAPKTIRDAFCVFEQNQGLPLRRHHSDLYSHYFGGLAETVLVVRSMSTLLNYDYVWDTVFHPSGAIEIRFYATGYISSAFLFGATGKYGNQVSEHTLGTVHTHSAHFKVDLDVAGLENWVWAEDMVFVPMAVPWSPEHQLQRLQVTRKLLEMEEQAAFLVGSATPRYLYLASNHSNKWGHPRGYRIQMLSFAGEPLPQNSSMARGFSWERYQLAVTQRKEEEPSSSSVFNQNDPWAPTVDFSDFINNETIAGKDLVAWVTAGFLHIPHAEDIPNTVTVGNGVGFFLRPYNFFDEDPSFYSADSIYFRGDQDAGACEVNPLACLPQAAACAPDLPAFSHGGFSHN
# How the values were obtained:
# Type in all cases: biochemical
# [1] = substrate: NCCc1ccc(F)cc1; experiment: Kinetic parameters, mouse SSAO/VAP-1; conditions: other: Mouse SSAO/VAP-1
# Protocol: (§1) The continuous spectrophotometric detection of SSAO-dependent H2O2 production based on a peroxidase-coupled reaction was performed as previously described by Abella et al. (2004, Diabetologia 47: 429-438) and following the procedure described by Holt et al., (1997, Anal. Biochem. 244: 384-392).
# (§2) Compounds listed in Table 1 were prepared according to the methods described above, purity was determined by HPLC at 220 nm, molecular weight calculated by mass spectrometer. Human and mouse SSAO activity was determined by detecting the production of hydrogene peroxide in the presence of the different compounds present at 1 mM for human and 100 μM for mice activity measurements. Compounds in Table 2″ were similarly assayed. Values are means of percentages relative to benzylamine-related hydrogen production. Kinetic Parameters for select compounds are set forth in Table 3 (Mouse SSAO) and Table 4 (Human SSAO).
# [2] = substrate: NCCCc1ccccc1; experiment: Kinetic parameters, mouse SSAO/VAP-1; conditions: other: Mouse SSAO/VAP-1
# Protocol: as §1, §2
# [3] = substrate: NCCc1ccccc1; experiment: Kinetic parameters, mouse SSAO/VAP-1; conditions: other: Mouse SSAO/VAP-1
# Protocol: as §1, §2
# [4] = substrate: NCCCCc1ccccc1; experiment: Kinetic parameters, mouse SSAO/VAP-1; conditions: other: Mouse SSAO/VAP-1
# Protocol: as §1, §2
# [5] = substrate: NCc1ccccc1; experiment: Kinetic parameters, mouse SSAO/VAP-1; conditions: other: Mouse SSAO/VAP-1
# Protocol: as §1, §2
# [6] = substrate: NCc1ccc(F)cc1; experiment: Kinetic parameters, mouse SSAO/VAP-1; conditions: other: Mouse SSAO/VAP-1
# Protocol: as §1, §2
# [7] = substrate: NCCc1ccc(F)cc1; experiment: Kinetic parameters, human SSAO/VAP-1; conditions: other: Human SSAO/VAP-1
# Protocol: as §1, §2
# [8] = substrate: NCCCc1ccccc1; experiment: Kinetic parameters, human SSAO/VAP-1; conditions: other: Human SSAO/VAP-1
# Protocol: as §1, §2
# [9] = substrate: NCCc1ccccc1; experiment: Kinetic parameters, human SSAO/VAP-1; conditions: other: Human SSAO/VAP-1
# Protocol: as §1, §2
# [10] = substrate: NCCCCc1ccccc1; experiment: Kinetic parameters, human SSAO/VAP-1; conditions: other: Human SSAO/VAP-1
# Protocol: as §1, §2
# [11] = substrate: NCc1ccccc1; experiment: Kinetic parameters, human SSAO/VAP-1; conditions: other: Human SSAO/VAP-1
# Protocol: as §1, §2
# [12] = substrate: NCc1ccc(F)cc1; experiment: Kinetic parameters, human SSAO/VAP-1; conditions: other: Human SSAO/VAP-1
# Protocol: as §1, §2
protein,measurement,setting,value
B1,Km,[1],31 ± 10 µM
same,kcat/Km,[1],488 M⁻¹ s⁻¹
same,Km,[2],10 ± 1.2 µM
same,kcat/Km,[2],1670 M⁻¹ s⁻¹
same,Km,[3],4.8 ± 13 µM
same,kcat/Km,[3],3040 M⁻¹ s⁻¹
same,Km,[4],8.8 ± 2.9 µM
same,kcat/Km,[4],3910 M⁻¹ s⁻¹
same,Km,[5],27.5 ± 9.9 µM
same,kcat/Km,[5],3780 M⁻¹ s⁻¹
same,Km,[6],29.1 ± 4.8 µM
same,kcat/Km,[6],1490 M⁻¹ s⁻¹
B2,Km,[7],2805 ± 613 µM
same,Vmax,[7],0.263 µmol/min/mg
same,kcat,[7],0.38 s⁻¹
same,kcat/Km,[7],135 M⁻¹ s⁻¹
same,Km,[8],1339 ± 140 µM
same,Vmax,[8],0.156 µmol/min/mg
same,kcat,[8],0.22 s⁻¹
same,kcat/Km,[8],168 M⁻¹ s⁻¹
same,Km,[9],2918 ± 1910 µM
same,Vmax,[9],0.05 µmol/min/mg
same,kcat,[9],0.07 s⁻¹
same,kcat/Km,[9],25 M⁻¹ s⁻¹
same,Km,[10],430 ± 110 µM
same,Vmax,[10],0.577 µmol/min/mg
same,kcat,[10],0.83 s⁻¹
same,kcat/Km,[10],1930 M⁻¹ s⁻¹
same,Km,[11],277 ± 33 µM
same,Vmax,[11],0.294 µmol/min/mg
same,kcat,[11],0.42 s⁻¹
same,kcat/Km,[11],1530 M⁻¹ s⁻¹
same,Km,[12],647 ± 32 µM
same,Vmax,[12],0.27 µmol/min/mg
same,kcat,[12],0.39 s⁻¹
same,kcat/Km,[12],600 M⁻¹ s⁻¹
